Molecular target: T1, OB-RY986F (Homo sapiens, UniProt P48357, Y986F)
T1 construct: cells transfected with the full-length OB-R constructs; expressed in transfected cells; host or cells: COS-7
T1 sequence (P48357 22-1165 Y986F): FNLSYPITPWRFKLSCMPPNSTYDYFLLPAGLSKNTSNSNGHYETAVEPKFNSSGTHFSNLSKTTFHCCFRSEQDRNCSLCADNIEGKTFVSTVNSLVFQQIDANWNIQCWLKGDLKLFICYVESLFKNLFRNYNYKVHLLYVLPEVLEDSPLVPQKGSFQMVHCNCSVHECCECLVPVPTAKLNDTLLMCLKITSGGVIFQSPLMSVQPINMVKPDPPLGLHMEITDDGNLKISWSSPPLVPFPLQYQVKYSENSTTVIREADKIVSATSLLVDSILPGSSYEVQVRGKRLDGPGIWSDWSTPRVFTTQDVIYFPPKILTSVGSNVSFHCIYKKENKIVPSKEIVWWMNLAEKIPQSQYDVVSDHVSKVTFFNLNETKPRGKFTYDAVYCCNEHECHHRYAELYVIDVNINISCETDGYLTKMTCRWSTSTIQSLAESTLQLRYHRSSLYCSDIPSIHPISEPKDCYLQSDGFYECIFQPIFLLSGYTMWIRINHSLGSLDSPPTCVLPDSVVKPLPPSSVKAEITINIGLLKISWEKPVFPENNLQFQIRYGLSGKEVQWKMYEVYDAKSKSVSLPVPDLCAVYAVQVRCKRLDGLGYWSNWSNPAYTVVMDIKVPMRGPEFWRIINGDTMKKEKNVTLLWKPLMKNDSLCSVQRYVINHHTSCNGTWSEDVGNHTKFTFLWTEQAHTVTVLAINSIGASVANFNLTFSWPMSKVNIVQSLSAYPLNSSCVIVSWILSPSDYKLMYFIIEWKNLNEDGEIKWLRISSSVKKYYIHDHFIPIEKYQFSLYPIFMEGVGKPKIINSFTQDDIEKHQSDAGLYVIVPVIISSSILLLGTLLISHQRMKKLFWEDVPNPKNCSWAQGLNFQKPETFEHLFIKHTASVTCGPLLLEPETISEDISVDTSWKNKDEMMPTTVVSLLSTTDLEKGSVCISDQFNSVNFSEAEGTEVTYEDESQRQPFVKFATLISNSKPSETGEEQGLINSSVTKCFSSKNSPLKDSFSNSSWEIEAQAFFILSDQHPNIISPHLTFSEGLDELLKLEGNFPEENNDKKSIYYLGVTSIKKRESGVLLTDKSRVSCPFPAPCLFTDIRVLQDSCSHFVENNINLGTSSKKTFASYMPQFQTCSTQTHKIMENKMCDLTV
Experiment: Luciferase reporter gene assay (3(G3)-Cy6-LUC), leptin stimulation of COS cells expressing mutant OB-RY986F
Assay type: cell-based
Details: mutant receptor OB-RY986F, 100 ng/ml leptin for 24 hours
Procedure: The cytoplasmic domain and full-length human OB-R was cloned by PCR using human fetal liver and adipocyte cDNA (Clontech) and cloned into the expression vectors pCMX and pMT21. Chimeric receptors were constructed by fusing the extracellular domain and transmembrane domain of TrkC (amino acids 1 to 458) to the cytoplasmic domain of OB-R (amino acids 865-1165). A triple myc epitope tag was added at the C-terminus of all OB-R constructs (18). Truncation and point mutant constructs were generated by PCR and the sequences of all constructs were verified. Expression constructs were transfected into COS-7 cells using lipofectamine (GIBCO-BRL); 36-48 hours after transfection, cells were starved for either 2 hour,s for chimeric receptors or overnight for full-length receptors prior to stimulation.
Expression constructs (1 μg) for OB-R, OB-RY1141F, OB-RY986F, OB-RY1078, 1079F, and OB-RY986, 1141F were co-transfected with 1 μg of 3(G3)-Cy6-LUC and 0.1 μg of pCMX.LacZ into COS-7 cells (6-well dishes) using lipofectamine. The day after transfection, media was changed to serum-free OptiMEM (GIBCO-BRL) and then treated with 100 ng/ml murine leptin (PeproTech) or human leptin (R&D Systems) for 24 hours. […] Luciferase and β-galactosidase activities were measured in cell lysates (30) and luciferase activity was normalized to β-galactosidase activity to control for transfection differences. […]

leptin: the product of the obese gene, secreted by adipocytes; ligand of OB-R
increase in luciferase activity: 20 fold
